Several values for one entry are separate records, joined by “and”; a condition that tells them apart may be missing. Equal entries are not always repeated. Some results are limits rather than exact numbers.

The test system of data set [1] is small intestine. Put plainly: Small intestine histology after lethal dose radiation. In kind it is in vivo, mice. As to conditions: 5 ug/kg, 1000 rad or 1600 rad (10 and 16 Gy), 4 days post radiation. The procedure:
4 days post radiation, small intestine were removed, fixed for PAS staining for mice received 10 Gy (Periodic Acid Schiff), H&E staining for mice received 16 Gy. […] There is no obvious histological damage in mice who received 10 Gy radiation. (200× magnification)
To determine if IL-112 sensitizes intestinal tract to ionizing radiation, two different doses of IL-12 and radiation were used in radioprotection assay, namely 5 ug/kg and 50 ug/kg of IL-12 and two different doses of radiation were also used. Subsequent to the administration of IL-12 and radiation, both bone marrow and the small intestine were removed from mice who received either 5 ug/kg or 50 ug/kg of IL-12 and a lethal dose radiation for histology study. The lethal doses were either 1000 rad or 1600 rad.
Mice were treated with IL-12 (100 ng/mouse) or PBS 24 hours before receiving lethal irradiation. At different days after lethal irradiation, femurs, spleens and small intestines were removed and fixed in 10% formalin buffer for 24 hours. Subsequently, bone marrow was decalcified in Rapid Decalcifier for about 30 minutes. Samples and tissues then were embedded in TissuePrep 2 paraffin wax for micro-section at 5 μm for routine Hematoxylin and Eosin staining. Some small intestines were treated with PAS (Periodic Acid Schiff) staining.

Data set [2] concerns peripheral blood cells. Nature of the data set: Blood cell recovery after chemotherapeutic drug Cytoxan. In kind it is in vivo, mice. To be noted: Cytoxan 300 mg/kg, IL-12 36 hrs before or 12 hrs after, n=5. The procedure: FIG. 9A: white blood cell; FIG. 9B: red blood cell; FIG. 9C: platelet; FIG. 9D: lymphocyte; FIG. 9E: monocyte; FIG. 9F: neutrophile. Cytoxan is name for cyclophosphamide.
A study was conducted to determine whether IL-12 administration promotes multi-lineage blood cell recovery when used in conjunction with a chemotherapeutic drug. In this example, use of IL-12 is as an adjuvant or ancillary therapy to the primary therapy of chemotherapy. IL-12 was administrated at different time (36 hrs before or 12 hrs after chemotherapy). Mice in this study received a relatively high dose of chemotherapeutic drug Cytoxan (e.g., 300 mg/kg). At different time post-cytoxan treatment, peripheral blood was collected via tail vein for blood cell count study. (Mascot). FIG. 9A white blood cell count; B: red blood cell count; C: platelet count.

The test system of data set [3] is long-term repopulating HSC. Put plainly: Secondary bone marrow transplantation of IL-12 rescued marrow. In kind it is in vivo, mice (Ly5.2 donor, Ly5.1 recipient). As to conditions: donor derived T/B and M/G cells detected. The text has this:
FIG. 5D-F: Secondary bone marrow transplantation was employed to detect if IL-12 can protect long-term repopulating HSC. Six month after lethal dose radiation and IL-12 rescue, bone marrow cells from these mice (Ly 5.2) were isolated and transplanted to secondary lethally irradiated mice (Ly 5.1). Four months after transplantation, donor cells (Ly5.2) were examined in recipient's peripheral blood.
The following gives some further experimental details. Six months after the rescue from lethal dose radiation (IL-12 treated mice, C57BL/Ly5.2), whole bone marrow cells were isolated and 1×10^6 cells were transplanted to secondary lethally irradiated mice (C57BL/Ly5.1). 4 months after transplantation, blood cells were collected and stained with anti-Ly5.2 and anti-Mac-1/anti-Gr-lantibodies (5D), and anti-Ly5.2 and anti-CD3/anti-B220 antibodies (5E) and anti-Ly5.2 antibody (5F). […]
Ly5.2 strain mice rescued by IL-112 treatment before or after lethal irradiation were sacrificed after 6 months. […] 4 months after the transplantation, peripheral blood cells were analyzed for Ly5.2 cells (anti-Ly5.2 antibody conjugated with FITC) with T cell and B cell markers (anti-CD3 and anti-B220 antibody conjugated with PE) and with macrophage and granulocyte cell markers (anti-CD11b and anti-Gr1 antibody conjugated with PE) using FACS. […]

The test system of data set [4] is peripheral blood cells. Put plainly: Peripheral blood cell counts after lethal or sublethal irradiation. In kind it is in vivo, mice (C57BL/6J). The text has this: After lethal dose radiation (10 Gy), the full blood cell count dropped to lowest point for both IL-12 treated and non-treated mice. However, 11-12 treated mice start to recover at day 14 post radiation while the control animals died out. It is noteworthy that the recovery is multi-lineage, including white blood cell, red blood cell and platelets.
Here too, the recovery is broad range and encompasses all blood lineages and blood cell types. […] This effect is somewhat better when IL-12 was administrated 24 hours before radiation than IL-12 administrated after radiation.
For peripheral blood cell counts, 6-8 week old female C57BL/6J mice received an i.v. injection of IL-12 before or after lethal (1000 rad) or sub-lethal (500 rad) irradiation. 10 ul blood was taken from the tail to do blood cell count analyses in a MASCOT Multispecies Hematology Systems (CDC Technologies, Oxford, Conn.) at different days after irradiation. Each group had at least 3 mice.

The test system of data set [5] is Sca-1+ cells. Nature of the data set: Annexin V / Sca-1 detection after lethal dose radiation (apoptosis). To be noted: IL-12 24 hours before 10 Gy, 7 hours post radiation. Type of data set: in vivo, mice. The procedure: IL-12 administration protects Annexin V^−/Sca-1^+ cells (H4) from radiation induced apoptosis, where the Sca-1^+ positive cells are indicative of the presence of hematopoietic repopulating cell or hematopoietic stem cells and Annexin V negative cells are indicative of the functional bone marrow cells.
A study was conducted to assess whether IL-12 administration protects Sca-1+ cells from radiation induced apoptosis. The Sca-1+ is a marker for hematopoietic repopulating cell or stem/progenitor cells. 24 hours post IL-12 administration, mice received lethal dose radiation (10 Gy). 7 hours post radiation, mice were sacrificed and bone marrow cells were isolated to detect Annexin V (an indication of cell apoptosis) and Sca-1 antigen (stem cell marker).

B1: IL-12: Recombinant murine interleukin 12, heterodimeric cytokine (p35+p40), purchased from R&D Systems or PeproTech (protein, UniProt P43431 23-215; P43432 23-335, looked up)
Interleukin-12 subunit alpha: RVIPVSGPARCLSQSRNLLKTTDDMVKTAREKLKHYSCTAEDIDHEDITRDQTSTLKTCLPLELHKNESCLATRETSSTTRGSCLPPQKTSLMMTLCLGSIYEDLKMYQTEFQAINAALQNHNHQQIILDKGMLVAIDELMQSLNHNGETLRQKPPVGEADPYRVKMKLCILLHAFSTRVVTINRVMGYLSSA
Interleukin-12 subunit beta: MWELEKDVYVVEVDWTPDAPGETVNLTCDTPEEDDITWTSDQRHGVIGSGKTLTITVKEFLDAGQYTCHKGGETLSHSHLLLHKKENGIWSTEILKNFKNKTFLKCEAPNYSGRFTCSWLVQRNMDLKFNIKSSSSSPDSRAVTCGMASLSAEKVTLDQRDYEKYSVSCQEDVTCPTAEETLPIELALEARQQNKYENYSTSFFIRDIIKPDPPKNLQMKPLKNSQVEVSWEYPDSWSTPHSYFSLKFFVRIQRKKEKMKETEEGCNQKGAFLVEKTSTEVQCKGGNVCVQAQDRYYNSSCSKWACVPCRVRS
Take B1: the “small intestine histology versus control” value in data set [1] is given as “no significant histological difference”. Also, the “blood cell recovery versus control” value in data set [2] was “better blood cell recovery”. Moreover, in data set [3], the “protection of long-term repopulating cells” value is on record as “protects long-term repopulating cells”. The “time to reach normal blood cell count” value in data set [4] (lethal dose radiation (10 Gy)) is given as “about 30 days post radiation”. The “day at which blood cell counts start to recover” value in data set [4] (lethal dose radiation (10 Gy), 100 ng/mouse) is reported as no more than 14 day post radiation; in data set [4] (lethal dose radiation (10 Gy), 100 ng/mouse, listed as 11-12), 14 day post radiation. For the same molecule, the “blood cell count recovery versus control” value in data set [4] (sublethal radiation (500 rad), 100 ng/mouse) is “accelerates the blood cell count recovery”. Further, the “red blood cell, platelet, white blood cell and monocyte versus control” value in data set [4] (sublethal radiation (500 rad), day 5 and 8 post radiation, p<0.05) is on record as “statistically higher”. Moreover, the “AnnexinV-/Sca-1+ cells in whole bone marrow” value in data set [5] (control 9.7±1.5%, p<0.01) was 19.2±3.7% and 19.2±2.3%. Besides, in data set [5] (control 44±5%, p<0.05), the “proportion of AnnexinV-/Sca-1+ cells in total Sca-1+ cells” value stood at 54±5%.

The values are drawn from patent US10029000B2, “Uses of IL-12 in hematopoiesis” (University of Southern California, priority 2003, dated 2018).
